We go through one molecule from CN110294802A.

The target in the assay is HAdV7灭活病毒 (human/CHN/GZ6965/2001).

B1: 10G12抗体 (antibody, V domains shown)
VH: QVQLKQPGAELVRPGASVKLSCKASGYSFTNYWMHWMKQRPGQGLEWIGMIDPSDSETRLNQKFKDKATLTVDKSSSIAYMQLSSPTSEDSAVYYCARDRYDGGAWFDYWSQGTLVT
VL: DIVMTQTPLSLPVSLGDQASISCRSSQSLVHSNGNTYLHWYLQKPGQSPKLLIYKVSNRFSGVPDRFSVSGSGTDFTLKISRVEAEDLGVYFCSQSTHVPPTFGGGTKLEIK
Molecule B1 showed a concentration for a half-maximal effect (EC50) of 0.14 nM.
